From paper PMC3480970 (Molecular microbiology, 2012)

Assays:
[1] = molecular target: CheC (Thermotoga maritima) (UniProt Q9X006); test: ITC; conditions: cited from earlier work
GST-CheD (B. subtilis) = GST-CheD (B. subtilis) (UniProt P40404); test: pull-down
[2] = molecular target: T1, 6xHis-McpC cytoplasmic fragment (wild type, unmodified) (B. subtilis, UniProt P54576 298-655); test: pull-down
T1 sequence (looked up): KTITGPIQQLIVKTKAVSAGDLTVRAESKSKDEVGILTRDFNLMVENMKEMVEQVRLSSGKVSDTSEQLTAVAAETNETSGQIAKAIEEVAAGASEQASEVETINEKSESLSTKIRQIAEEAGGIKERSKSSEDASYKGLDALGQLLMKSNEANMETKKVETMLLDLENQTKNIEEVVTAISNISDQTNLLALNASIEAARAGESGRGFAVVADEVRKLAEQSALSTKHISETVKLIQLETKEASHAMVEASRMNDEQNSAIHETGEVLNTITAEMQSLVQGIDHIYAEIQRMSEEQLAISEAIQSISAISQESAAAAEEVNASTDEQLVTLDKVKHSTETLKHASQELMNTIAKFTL

CheC (Thermotoga maritima), sequence (Q9X006 whole entry): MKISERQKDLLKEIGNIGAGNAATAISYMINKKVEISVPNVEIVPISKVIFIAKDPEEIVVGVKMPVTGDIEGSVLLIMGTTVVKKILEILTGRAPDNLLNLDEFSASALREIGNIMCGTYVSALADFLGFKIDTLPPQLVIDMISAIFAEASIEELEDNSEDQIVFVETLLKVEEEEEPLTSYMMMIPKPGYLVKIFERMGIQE

CheD (from UniProt Q9X005)
Kd [1]: 1 µM

Deamidated (Q609E) McpC cytoplasmic chemoreceptor fragment (from UniProt P54576 1-655) (domain or fragment)
Kd (GST-CheD (B. subtilis)): 117 µM
percent of chemoreceptor bound (GST-CheD (B. subtilis)): 13.2%

B1: GST-CheD (enzyme, B. subtilis, UniProt P40404 1-166, looked up)
chain: MSTTEAVVIKVGIADVKIARFPDTIRTSGLGSCVGLVLYDKEKQTAGLVHVMLPDSTLSKTAELNRAKYADTAVQTTIDMLIEAGCRKFALKAKLAGGSEMFKFKSTNDLMKIGPRNVLAIKEQLSLFNIPIISEDTGGSSGRTIEFEPKSCMLHIRTVKQGEKTI
Kd [2]: 202 µM
